Values joined by “and” are separate entries in the source; they are usually repeats but may differ in a detail not shown here. Equal values may be shown once.
Columns and labels:
[1] = molecular target: TNF-α cell surface receptors on human HeLa and FS11 fibroblast cells (human); test: 125I-TNF-α binding to cells; control without urine concentrate, condition A (4° C. 90′ prior to application of TNF-α)
[2] = molecular target: TNF-α cell surface receptors on human HeLa and FS11 fibroblast cells (human); test: 125I-TNF-α binding to cells; urine concentrate holding TNF Inhibitory Protein applied at 37° C. 90′ prior to TNF-α and removed (condition B)
[3] = molecular target: TNF-α cell surface receptors on human HeLa and FS11 fibroblast cells (human); test: 125I-TNF-α binding to cells; control without urine concentrate, condition B (37° C. 90′ prior to application of TNF-α)
[4] = molecular target: TNF-α cell surface receptors on human HeLa and FS11 fibroblast cells (human); test: 125I-TNF-α binding to cells; control without urine concentrate, condition C (4° C. together with TNF-α)

Chain of TNF-α cell surface receptors on human HeLa and FS11 fibroblast cells (human) (P19438 30-455): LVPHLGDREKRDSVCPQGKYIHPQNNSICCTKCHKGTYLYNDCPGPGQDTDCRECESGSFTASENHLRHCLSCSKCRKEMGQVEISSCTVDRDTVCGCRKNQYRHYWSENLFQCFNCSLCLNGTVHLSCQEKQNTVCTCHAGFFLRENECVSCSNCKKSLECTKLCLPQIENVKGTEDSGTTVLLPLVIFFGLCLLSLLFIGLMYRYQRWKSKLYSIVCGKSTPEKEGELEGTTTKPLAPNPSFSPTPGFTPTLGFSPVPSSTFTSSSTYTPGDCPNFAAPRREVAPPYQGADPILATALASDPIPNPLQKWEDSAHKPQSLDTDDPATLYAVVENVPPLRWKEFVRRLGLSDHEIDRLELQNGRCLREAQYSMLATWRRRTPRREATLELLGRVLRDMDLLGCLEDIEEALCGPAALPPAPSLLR

CPM [1]: 5290 CPM | CPM [2]: 4730 CPM and 4460 CPM | CPM [3]: 5560 CPM | CPM [4]: 4630 CPM
Substance: Tumor Necrosis Factor-α (TNF-α) (from UniProt P01375 77-233) (ligand)
